Source: the supplement of paper PMC9112550, “Optimization of the antimicrobial peptide Bac7 by deep mutational scanning” (BMC Biology, 2022)

test system: Escherichia coli TOP10; experiment: shrunken log2 fold change of peptide-encoding DNA abundance (4.5 h post-induction vs induction); higher = less antimicrobial activity (less host growth inhibition); details: time post-induction: 4.5 h; library: site-saturation at positions 5, 18, 19, 20
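Also: peptides expressed intracellularly from a pBAD plasmid library in pooled LB shake-flask culture, induced with 0.3% L-arabinose, DNA abundance read by NGS, three biological replicates, DESeq2 with apeglm shrinkage.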

Row | Sequence | shrunken log2 fold change
1 | RRIRLRPPRLPRPRPRPRQMPRP | 0.208
2 | RRIRLRPPRLPRPRPRPRQNPRP | 0.108
3 | RRIRLRPPRLPRPRPRPRRNPRP | 0.0956
4 | RRIRLRPPRLPRPRPRPRRQPRP | 0.234
5 | RRIRLRPPRLPRPRPRPRSFPRP | -0.107
6 | RRIRLRPPRLPRPRPRPRSHPRP | 0.195
7 | RRIRLRPPRLPRPRPRPRTRPRP | 0.519
8 | RRIRLRPPRLPRPRPRPRWHPRP | 0.199
9 | RRIRLRPPRLPRPRPRPSAQPRP | 0.0425
10 | RRIRLRPPRLPRPRPRPSCSPRP | -0.527
11 | RRIRLRPPRLPRPRPRPSDHPRP | -0.293
12 | RRIRLRPPRLPRPRPRPSDMPRP | -0.18
13 | RRIRLRPPRLPRPRPRPSEQPRP | -0.153
14 | RRIRLRPPRLPRPRPRPSEYPRP | -0.675
15 | RRIRLRPPRLPRPRPRPSGMPRP | -0.204
16 | RRIRLRPPRLPRPRPRPSHGPRP | -0.0685
17 | RRIRLRPPRLPRPRPRPSHPPRP | -0.516
18 | RRIRLRPPRLPRPRPRPSHSPRP | -0.775
19 | RRIRLRPPRLPRPRPRPSIQPRP | -1.1
20 | RRIRLRPPRLPRPRPRPSLGPRP | -0.213
21 | RRIRLRPPRLPRPRPRPSLLPRP | -0.254
22 | RRIRLRPPRLPRPRPRPSMPPRP | -0.4
23 | RRIRLRPPRLPRPRPRPSMYPRP | -0.261
24 | RRIRLRPPRLPRPRPRPSNFPRP | -0.956
25 | RRIRLRPPRLPRPRPRPSQEPRP | -0.0518

Row | Sequence | shrunken log2 fold change
26 | RRIRLRPPRLPRPRPRPSQHPRP | -0.169
27 | RRIRLRPPRLPRPRPRPSQPPRP | -0.0367
28 | RRIRLRPPRLPRPRPRPSQYPRP | -0.504
29 | RRIRLRPPRLPRPRPRPSSKPRP | -0.524
30 | RRIRLRPPRLPRPRPRPSSWPRP | -0.0958
31 | RRIRLRPPRLPRPRPRPSTRPRP | 0.174
32 | RRIRLRPPRLPRPRPRPSWAPRP | -0.098
33 | RRIRLRPPRLPRPRPRPSWNPRP | -0.342
34 | RRIRLRPPRLPRPRPRPSYMPRP | -0.802
35 | RRIRLRPPRLPRPRPRPTDFPRP | -0.0399
36 | RRIRLRPPRLPRPRPRPTEMPRP | 0.037
37 | RRIRLRPPRLPRPRPRPTGCPRP | 0.19
38 | RRIRLRPPRLPRPRPRPTGGPRP | 0.621
39 | RRIRLRPPRLPRPRPRPTGLPRP | 0.177
40 | RRIRLRPPRLPRPRPRPTGWPRP | 0.303
41 | RRIRLRPPRLPRPRPRPTHCPRP | -0.0342
42 | RRIRLRPPRLPRPRPRPTHRPRP | 0.101
43 | RRIRLRPPRLPRPRPRPTHVPRP | 0.329
44 | RRIRLRPPRLPRPRPRPTHWPRP | 0.416
45 | RRIRLRPPRLPRPRPRPTHYPRP | -0.18
46 | RRIRLRPPRLPRPRPRPTKEPRP | -0.0767
47 | RRIRLRPPRLPRPRPRPTKIPRP | 0.0747
48 | RRIRLRPPRLPRPRPRPTNLPRP | -0.27
49 | RRIRLRPPRLPRPRPRPTNNPRP | -0.524
50 | RRIRLRPPRLPRPRPRPTNWPRP | 0.0175

Row | Sequence | shrunken log2 fold change
51 | RRIRLRPPRLPRPRPRPTREPRP | 0.794
52 | RRIRLRPPRLPRPRPRPTRHPRP | 0.156
53 | RRIRLRPPRLPRPRPRPTRPPRP | 0.828
54 | RRIRLRPPRLPRPRPRPTSQPRP | -0.145
55 | RRIRLRPPRLPRPRPRPTTRPRP | 0.34
56 | RRIRLRPPRLPRPRPRPTVCPRP | -0.0284
57 | RRIRLRPPRLPRPRPRPTVYPRP | -0.146
58 | RRIRLRPPRLPRPRPRPTYYPRP | -0.399
59 | RRIRLRPPRLPRPRPRPVEIPRP | 0.0548
60 | RRIRLRPPRLPRPRPRPVFEPRP | 0.239
61 | RRIRLRPPRLPRPRPRPVFSPRP | -0.112
62 | RRIRLRPPRLPRPRPRPVGAPRP | 0.349
63 | RRIRLRPPRLPRPRPRPVIPPRP | -0.0331
64 | RRIRLRPPRLPRPRPRPVIVPRP | -0.0265
65 | RRIRLRPPRLPRPRPRPVKTPRP | -0.0565
66 | RRIRLRPPRLPRPRPRPVLTPRP | -0.198
67 | RRIRLRPPRLPRPRPRPVMFPRP | -0.268
68 | RRIRLRPPRLPRPRPRPVMGPRP | 0.256
69 | RRIRLRPPRLPRPRPRPVMLPRP | -0.495
70 | RRIRLRPPRLPRPRPRPVNKPRP | -0.14
71 | RRIRLRPPRLPRPRPRPVPFPRP | 0.123
72 | RRIRLRPPRLPRPRPRPVQHPRP | -0.0767
73 | RRIRLRPPRLPRPRPRPVRDPRP | -0.105
74 | RRIRLRPPRLPRPRPRPVRLPRP | 0.576
75 | RRIRLRPPRLPRPRPRPVSNPRP | -0.837

Row | Sequence | shrunken log2 fold change
76 | RRIRLRPPRLPRPRPRPVTIPRP | 0.0221
77 | RRIRLRPPRLPRPRPRPVTNPRP | -0.0302
78 | RRIRLRPPRLPRPRPRPVTQPRP | -0.323
79 | RRIRLRPPRLPRPRPRPVVEPRP | 0.175
80 | RRIRLRPPRLPRPRPRPVVGPRP | 0.103
81 | RRIRLRPPRLPRPRPRPVVIPRP | -0.0403
82 | RRIRLRPPRLPRPRPRPVWQPRP | -0.096
83 | RRIRLRPPRLPRPRPRPWAPPRP | 1.18
84 | RRIRLRPPRLPRPRPRPWCKPRP | -0.213
85 | RRIRLRPPRLPRPRPRPWDTPRP | 0.0949
86 | RRIRLRPPRLPRPRPRPWELPRP | -0.00192
87 | RRIRLRPPRLPRPRPRPWFSPRP | -0.225
88 | RRIRLRPPRLPRPRPRPWGRPRP | -0.0734
89 | RRIRLRPPRLPRPRPRPWHHPRP | -0.0279
90 | RRIRLRPPRLPRPRPRPWHNPRP | -0.00136
91 | RRIRLRPPRLPRPRPRPWIAPRP | 0.0439
92 | RRIRLRPPRLPRPRPRPWLKPRP | 0.0827
93 | RRIRLRPPRLPRPRPRPWLQPRP | 0.0325
94 | RRIRLRPPRLPRPRPRPWNEPRP | -0.11
95 | RRIRLRPPRLPRPRPRPWNRPRP | -0.0226
96 | RRIRLRPPRLPRPRPRPWNVPRP | -0.0513
97 | RRIRLRPPRLPRPRPRPWQHPRP | -0.319
98 | RRIRLRPPRLPRPRPRPWTQPRP | 0.13
99 | RRIRLRPPRLPRPRPRPWVHPRP | -0.3
100 | RRIRLRPPRLPRPRPRPWWQPRP | -0.179

Row | Sequence | shrunken log2 fold change
101 | RRIRLRPPRLPRPRPRPWYCPRP | -0.766
102 | RRIRLRPPRLPRPRPRPWYKPRP | -0.0396
103 | RRIRLRPPRLPRPRPRPYCDPRP | -0.328
104 | RRIRLRPPRLPRPRPRPYCHPRP | -0.542
105 | RRIRLRPPRLPRPRPRPYDAPRP | -0.211
106 | RRIRLRPPRLPRPRPRPYDIPRP | 0.00601
107 | RRIRLRPPRLPRPRPRPYIKPRP | -0.882
108 | RRIRLRPPRLPRPRPRPYKCPRP | -0.0222
109 | RRIRLRPPRLPRPRPRPYKDPRP | -0.269
110 | RRIRLRPPRLPRPRPRPYKGPRP | -0.027
111 | RRIRLRPPRLPRPRPRPYKMPRP | -0.851
112 | RRIRLRPPRLPRPRPRPYLLPRP | -0.248
113 | RRIRLRPPRLPRPRPRPYLVPRP | -1.06
114 | RRIRLRPPRLPRPRPRPYMLPRP | -1.2
115 | RRIRLRPPRLPRPRPRPYMYPRP | -0.759
116 | RRIRLRPPRLPRPRPRPYNKPRP | 1.41
117 | RRIRLRPPRLPRPRPRPYQIPRP | -0.489
118 | RRIRLRPPRLPRPRPRPYQTPRP | 0.0345
119 | RRIRLRPPRLPRPRPRPYTYPRP | -0.235
120 | RRIRLRPPRLPRPRPRPYYCPRP | -0.223
121 | RRIRLRPPRLPRPRPRPYYMPRP | -0.671
122 | RRIRMRPPRLPRPRPRPAACPRP | 0.763
123 | RRIRMRPPRLPRPRPRPACIPRP | 0.112
124 | RRIRMRPPRLPRPRPRPACQPRP | 0.141
125 | RRIRMRPPRLPRPRPRPACRPRP | 0.633

Row | Sequence | shrunken log2 fold change
126 | RRIRMRPPRLPRPRPRPADDPRP | -0.00235
127 | RRIRMRPPRLPRPRPRPADKPRP | 0.318
128 | RRIRMRPPRLPRPRPRPAEYPRP | 0.0354
129 | RRIRMRPPRLPRPRPRPAFCPRP | 0.455
130 | RRIRMRPPRLPRPRPRPAFHPRP | 0.319
131 | RRIRMRPPRLPRPRPRPAFWPRP | 0.963
132 | RRIRMRPPRLPRPRPRPAGYPRP | 0.572
133 | RRIRMRPPRLPRPRPRPAICPRP | 0.171
134 | RRIRMRPPRLPRPRPRPAKAPRP | 0.0749
135 | RRIRMRPPRLPRPRPRPAKMPRP | 0.134
136 | RRIRMRPPRLPRPRPRPAKPPRP | 0.453
137 | RRIRMRPPRLPRPRPRPALLPRP | 0.727
138 | RRIRMRPPRLPRPRPRPALMPRP | 0.114
139 | RRIRMRPPRLPRPRPRPAMCPRP | 0.124
140 | RRIRMRPPRLPRPRPRPAMNPRP | -0.00221
141 | RRIRMRPPRLPRPRPRPAMRPRP | 1.14
142 | RRIRMRPPRLPRPRPRPANNPRP | -0.264
143 | RRIRMRPPRLPRPRPRPANTPRP | -0.0215
144 | RRIRMRPPRLPRPRPRPANVPRP | -0.0273
145 | RRIRMRPPRLPRPRPRPAQDPRP | 0.376
146 | RRIRMRPPRLPRPRPRPAQIPRP | -0.0435
147 | RRIRMRPPRLPRPRPRPAQLPRP | 0.101
148 | RRIRMRPPRLPRPRPRPAQWPRP | 0.533
149 | RRIRMRPPRLPRPRPRPARLPRP | 0.201
150 | RRIRMRPPRLPRPRPRPARQPRP | 0.825
